Laboratory results taken from article PMC2374443.

Molecular target: integrin-associated protein (CD47/IAP) (human (endogenous in primary articular chondrocytes))
Sequence (Q08722 19-323): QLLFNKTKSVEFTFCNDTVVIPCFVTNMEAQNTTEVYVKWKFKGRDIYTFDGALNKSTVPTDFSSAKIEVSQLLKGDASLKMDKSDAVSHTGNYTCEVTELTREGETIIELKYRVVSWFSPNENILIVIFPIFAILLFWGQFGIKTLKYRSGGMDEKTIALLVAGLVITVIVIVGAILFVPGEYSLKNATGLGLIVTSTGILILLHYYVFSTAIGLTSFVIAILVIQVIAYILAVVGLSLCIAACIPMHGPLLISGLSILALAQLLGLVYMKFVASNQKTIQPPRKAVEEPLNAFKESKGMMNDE

“thrombospondin-1 (TSP-1) (from UniProt P07996 19-1170) (natural protein)” showed a percentage change of membrane potential of normal chondrocytes after 20 min of 0.33 Hz mechanical stimulation in the presence of anti-CD47/IAP antibody Bric 126 (without antibody +21) of 2%, a percentage change of membrane potential of osteoarthritic chondrocytes after 20 min of 0.33 Hz mechanical stimulation in the presence of anti-CD47/IAP antibody Bric 126 (without antibody -42) of -2% and a percentage change of membrane potential of osteoarthritic chondrocytes after 20 min of 0.33 Hz mechanical stimulation in the presence of anti-TSP-1 antibody (without antibody -42) of 3%.
